Assay results from patent publication US20220315663A1 (published 2022).

Molecular target: T1, cynomolgus monkey CD79b antigen (cynomolgus monkey)
T1 construct: also called cyno CD79b; CD9W1.001
Assay: SPR, cyno CD79b against human CD79b (refers to Table 32)

B1: C923B38 (trispecific antibody, human IgG1, kappa, L234A L235A)
heavy: QVQLQESGPGLVKPSETLSLTCSVSGASISSFYWSWIRQPADEGLEWIGRISPSGKTNYIPSLKSRIIMSLDASKNQFSLRLNSVTAADTAMYYCARGEYSGTYSYSFDVWGQGTMVTVSSASTKGPSVFPLAPSSKSTSGGTAALGCLVKDYFPEPVTVSWNSGALTSGVHTFPAVLQSSGLYSLSSVVTVPSSSLGTQTYICNVNHKPSNTKVDKKVEPKSCDKTHTCPPCPAPEAAGGPSVFLFPPKPKDTLMISRTPEVTCVVVSVSHEDPEVKFNWYVDGVEVHNAKTKPREEQYNSTYRVVSVLTVLHQDWLNGKEYKCKVSNKALPAPIEKTISKAKGQPREPQVYTLPPSREEMTKNQVSLSCAVKGFYPSDIAVEWESNGQPENNYKTTPPVLDSDGSFFLVSKLTVDKSRWQQGNVFSCSVMHEALHNRFTQKSLSLSPGK
light: DIVMTQSPLSLSVTPGEPASISCRSSESLLDSEDGNTYLDWFLQKPGQSPQLLIYTLSYRASGVPDRFSGSGSDTDFTLHISSLEAEDVGLYYCMQRMEFPLTFGQGTKVEIKRTVAAPSVFIFPPSDEQLKSGTASVVCLLNNFYPREAKVQWKVDNALQSGNSQESVTEQDSKDSTYSLSSTLTLSKADYEKHKVYACEVTHQGLSSPVTKSFNRGEC
chain: EIVLTQSPATLSASPGERVTLSCSASSSVSYMNWYQQKPGQAPRRWIYDSSKLASGVPARFSGSGSGRDYTLTISSLEPEDFAVYYCQQWSRNPPTFGGGTKVEIKGGSEGKSSGSGSESKSTGGSQVQLVQSGAEVKKPGSSVKVSCKASGYTFTRSTMHWVKQAPGQGLEWIGYINPSSAYTNYNQKFQGRVTLTADKSTSTAYMELSSLRSEDTAVYYCASPQVHYDYAGFPYWGQGTLVTVSSEPKSSDKTHTCPPCPAPEAAGGPSVFLFPPKPKDTLMISRTPEVTCVVVSVSHEDPEVKFNWYVDGVEVHNAKTKPREEQYNSTYRVVSVLTVLHQDWLNGKEYKCKVSNKALPAPIEKTISKAKGQPREPQVYTLPPSREEMTKNQVSLWCLVKGFYPSDIAVEWESNGQPENNYKTTPPVLDSDGSFFLYSKLTVDKSRWQQGNVFSCSVMHEALHNHYTQKSLSLSPGKGGSEGKSSGSGSESKSTGGSAIQLTQSPSSLSASVGDRVTITCRASSSVSYIHWFQQKPGKAPKPLIYATSNLASGVPSRFSGSGSGTDFTLTISSLQPEDFATYYCQQWTSNPPTFGQGTKLEIKGGSEGKSSGSGSESKSTGGSQVQLVQSGAEVKKPGSSVKVSCKASGYTFTSYNMHWVRQAPGQGLEWMGAIYPGNGDTSYAQKFQGRVTITADKSTSTAYMELSSLRSEDTAVYYCARSTYYGGDWYFNVWGQGTLVTVSS
notes: IgG1 trispecific: Fab to CD79b; second chain carries the CD3 scFv, the Fc and the CD20 scFv; also called CD79b×CD20×CD3 trispecific antibody
fold weaker affinity compared to human: > 10000 fold
